Where two headings read alike, the source gives them in different places.
B1: dsDNA20 (dsDNA)
DNA 1: AAAGATGTCCTAGCAATGTA
DNA 2: TACATTGCTAGGACATCTTT
B2: Mer2 (untagged, from ^SUMOMer2) (natural protein)
chain: MVARGRTDEISTDVSEANSEHSLMITETSSPFRSIFSHSGKVANAGALEESDKQILEWAGKLELESMELRENSDKLIKVLNENSKTLCKSLNKFNQLLEQDAATNGNVKTLIKDLASQIENQLDKVSTAMLSKGDEKKTKSDSSYRQVLVEEISRYNSKITRHVTNKQHETEKSMRCTQEMLFNVGSQLEDVHKVLLSLSKDMHSLQTRQTALEMAFREKADHAYDRPDVSLNGTTLLHDMDEAHDKQRKKSVPPPRMMVTRSMKRRRSSSPTLSTSQNHNSEDNDDASHRLKRAARTIIPWEELRPDTLESEL
B3: HisFlag-tagged Rec114 (natural protein)
chain: MYEYCSVVIKKYSKYTIPSFAPNGFQSMLEPPQIDKWQHLSANCTLQFRVLLMDSRQILINVVLNNSTLLENIRLPLGDNQDLIQFSCKSPIISCKYISEEFGPRMLRRFQMNLPNDVEFNRTVVSLKNLNFVLRTARTSIAQSTITSQVQGNNNGTKVCFTEGPKVSSYTNPNTQFQTQNMIMDFSQRYQEESERESNNRSNITLPHDSIQIAQQIWPNTDLNVVQSSQDLNTPMATQTVLGRPESLIVQPLEVSQSPPNTTNCLPNAENKKKKVDTTSDFTSRKEIALCKTGLLETIHIPKERESQMQSVTGLDATPTIIWSPGKDNTAKKNTSNKKNIDDKLTNPQKSGNTHTPDRNKEVLPNGTLNETRKEASPSEGLTIRVKNVNRNASRKISKRLIKEKLKDEEFMKWVNKVETVLNKMFEK
B4: Rec114 (untagged, from ^HisFlag-TEVRec114) (natural protein)
chain: B3 chain
B5: Mer2 coiled-coil domain (residues 77-227) (domain or fragment)
chain: IKVLNENSKTLCKSLNKFNQLLEQDAATNGNVKTLIKDLASQIENQLDKVSTAMLSKGDEKKTKSDSSYRQVLVEEISRYNSKITRHVTNKQHETEKSMRCTQEMLFNVGSQLEDVHKVLLSLSKDMHSLQTRQTALEMAFREKADHAYDR
B6: dsDNA80 (dsDNA)
DNA 1: CTAGTATAGAGCCGGCGCGCCATGTCTAGATAGCGTTAGGTCTGCCGAATAGTACTACTCGGATCCCGAGCGAACCACGC
DNA 2: GCGTGGTTCGCTCGGGATCCGAGTAGTACTATTCGGCAGACCTAACGCTATCTAGACATGGCGCGCCGGCTCTATACTAG
B7: dsDNA40 (dsDNA)
DNA 1: CAACGTGGGCAAAGATGTCCTAGCAATGTAATCGTCTATG
DNA 2: CATAGACGATTACATTGCTAGGACATCTTTGCCCACGTTG

Experiments:
[1] = biological target: Mer2 coiled-coil single-chain dimer (S. cerevisiae) (UniProt P21651); experiment: SEC-MALS
Mer2 = biological target: T1, Mer2 (Saccharomyces cerevisiae, UniProt P21651 1-314); experiment: EMSA
T1 sequence: B2 chain

Rec114-Mei4 = biological target: T2, Rec114-Mei4 (Saccharomyces cerevisiae, UniProt P32841;P29467 1-428;1-408); experiment: EMSA
T2 sequence 1: B3 chain
T2 sequence 2: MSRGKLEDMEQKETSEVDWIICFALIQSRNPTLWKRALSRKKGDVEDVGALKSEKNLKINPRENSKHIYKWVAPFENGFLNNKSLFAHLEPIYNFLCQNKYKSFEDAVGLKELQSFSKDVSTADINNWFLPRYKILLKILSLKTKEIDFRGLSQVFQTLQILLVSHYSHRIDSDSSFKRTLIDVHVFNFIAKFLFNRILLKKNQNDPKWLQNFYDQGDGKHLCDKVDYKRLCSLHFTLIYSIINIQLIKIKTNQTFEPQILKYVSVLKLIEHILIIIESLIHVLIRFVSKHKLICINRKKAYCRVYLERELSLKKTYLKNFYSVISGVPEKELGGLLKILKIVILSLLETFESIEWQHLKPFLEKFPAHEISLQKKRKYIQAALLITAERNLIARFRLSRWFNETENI

SEC-MALS [2] = biological target: the molecule itself; experiment: SEC-MALS
MBP-tagged Mei4 = biological target: T3, MBP-tagged Mei4 (S. cerevisiae, UniProt P29467 1-408); experiment: SEC-MALS
T3 sequence: T2 sequence 2

[3] = biological target: T4, Mei4 (untagged, from ^MBP-TEVMei4) (S. cerevisiae, UniProt P29467 1-408); experiment: SEC-MALS
T4 sequence: T2 sequence 2

SEC-MALS [4] = biological target: the molecule itself; experiment: SEC-MALS; remark: listed apart in the source

| Molecule | apparent K (half saturation) (Mer2) | apparent K (half saturation) (Rec114-Mei4) | other results |
| --- | --- | --- | --- |
| Mer2 coiled-coil single-chain dimer (from UniProt P21651) |  |  | stoichiometry N [1]: 2 |
| B1 | > 400 nM | ~80 nM |  |
| B2 |  |  | stoichiometry N (SEC-MALS [2]): 4 |
| B3 |  |  | stoichiometry N (MBP-tagged Mei4): 2 Rec114 per Mei4 |
| B4 |  |  | stoichiometry N [3]: 2 Rec114 per Mei4 |
| B5 |  |  | stoichiometry N (SEC-MALS [4]): 4 |
| B6 | 19 nM | 6 nM |  |
| B7 | 64 nM | 35 nM |  |

Reference: paper PMC8016751 (Nature, 2020)
